Reference: IntAct's records for PubMed 22927794

B1: Long arms of the bivalent protein 1 (Caenorhabditis elegans), Q17604 (parent)
chain: MVSHKKNDRPRPLWILKIHKRLSLFEFKRYATGIGKDDGQDISWVLKGNAKNNVYQVTVETMENCETDECKKVIWVPDELAESTGTMFEDFKEDQPQESVSSISNNEANWGSSVNELDENYEKMQKEETFDPYDSDSDTSEDSDFDEDFEDSDKTMCSGQS

Variants of: B1
Settings: with glc7b_caeel gsp-2, P48727
Chain of glc7b_caeel gsp-2, P48727 (P48727 whole entry): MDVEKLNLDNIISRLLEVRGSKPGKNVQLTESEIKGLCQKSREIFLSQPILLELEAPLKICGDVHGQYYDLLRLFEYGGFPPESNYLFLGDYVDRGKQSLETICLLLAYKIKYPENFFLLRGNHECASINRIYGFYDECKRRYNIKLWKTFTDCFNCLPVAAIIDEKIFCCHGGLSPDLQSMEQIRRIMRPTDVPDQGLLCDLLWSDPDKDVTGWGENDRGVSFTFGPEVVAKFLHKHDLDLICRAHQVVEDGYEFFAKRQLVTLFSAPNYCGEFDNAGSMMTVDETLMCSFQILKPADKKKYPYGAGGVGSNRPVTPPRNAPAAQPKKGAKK

Variant	effect of a mutation on the interaction
MVSHKKNDRPRPLWILKIHKRLSLFEFKRYATGIGKDDGQDISWVLKGNAKNNVYQVTVETMENCETDECKKAIAVPDELAESTGTMFEDFKEDQPQESVSSISNNEANWGSSVNELDENYEKMQKEETFDPYDSDSDTSEDSDFDEDFEDSDKTMCSGQS [V73A;W75A]	increasing interaction strength

Variants of: B1
Settings: with glc7a_caeel gsp-1, Q27497
Chain of glc7a_caeel gsp-1, Q27497 (Q27497 whole entry): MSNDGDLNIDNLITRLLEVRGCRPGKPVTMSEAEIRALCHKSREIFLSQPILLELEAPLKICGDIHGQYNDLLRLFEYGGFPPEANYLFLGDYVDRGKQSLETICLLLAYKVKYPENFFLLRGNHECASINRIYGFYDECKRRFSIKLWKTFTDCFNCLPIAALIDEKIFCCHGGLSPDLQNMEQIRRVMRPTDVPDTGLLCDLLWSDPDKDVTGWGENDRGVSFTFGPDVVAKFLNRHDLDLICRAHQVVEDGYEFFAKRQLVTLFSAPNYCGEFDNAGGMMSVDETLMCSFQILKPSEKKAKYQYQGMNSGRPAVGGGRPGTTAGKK

Variant	effect of a mutation on the interaction
MVSHKKNDRPRPLWILKIHKRLSLFEFKRYATGIGKDDGQDISWVLKGNAKNNVYQVTVETMENCETDECKKAIAVPDELAESTGTMFEDFKEDQPQESVSSISNNEANWGSSVNELDENYEKMQKEETFDPYDSDSDTSEDSDFDEDFEDSDKTMCSGQS [V73A;W75A]	decreasing interaction strength
